Data from publication PMC7212365.

How the values were obtained:
[1] = molecular target: Dimeric HER2 binding IgA1 produced in N. benthamiana ΔXT/FT (human) (UniProt P01591); assay: SPR; Biacore T200; IgA variants immobilized on a Protein L sensor chip; five increasing concentrations of FcαRI injected in single-cycle kinetic experiments; 1:1 binding model; three independent kinetic runs
[2] = molecular target: Dimeric HER2 binding IgA2m(2) produced in N. benthamiana ΔXT/FT (human) (UniProt P01591); assay: as above
[3] = molecular target: Monomeric HER2 binding IgA2m(2) produced in N. benthamiana ΔXT/FT (human); assay: as above
[4] = molecular target: Monomeric HER2 binding IgA1 produced in HEK293F cells (human); assay: as above
[5] = molecular target: Dimeric HER2 binding IgA2m(2) produced in HEK293F cells (human) (UniProt P01591); assay: as above
[6] = molecular target: Dimeric HER2 binding IgA1 produced in HEK293F cells (human) (UniProt P01591); assay: as above
[7] = molecular target: Monomeric HER2 binding IgA2m(2) produced in HEK293F cells (human); assay: as above
[8] = molecular target: Monomeric HER2 binding IgA1 produced in N. benthamiana ΔXT/FT (human); assay: as above
[9] = molecular target: HER2 binding dimeric IgA2m(2) produced in N. benthamiana ΔXT/FT plants (human) (UniProt P01591); assay: SPR; Biacore T200; IgA variants immobilised on a Protein L sensor chip with the Fc-domain pointing toward the solution; five increasing concentrations of FcαRI injected in single-cycle kinetic experiments; 1:1 binding model; three independent kinetic runs
[10] = molecular target: HER2 binding dimeric IgA1 produced in N. benthamiana ΔXT/FT plants (human) (UniProt P01591); assay: as above
[11] = molecular target: HER2 binding monomeric IgA1 produced in HEK293F cells (human); assay: as above
[12] = molecular target: HER2 binding monomeric IgA2m(2) produced in HEK293F cells (human); assay: as above
[13] = molecular target: HER2 binding monomeric IgA2m(2) produced in N. benthamiana ΔXT/FT plants (human); assay: as above
[14] = molecular target: HER2 binding monomeric IgA1 produced in N. benthamiana ΔXT/FT plants (human); assay: as above
[15] = molecular target: HER2 binding dimeric IgA2m(2) produced in HEK293F cells (human) (UniProt P01591); assay: as above
[16] = molecular target: HER2 binding dimeric IgA1 produced in HEK293F cells (human) (UniProt P01591); assay: as above

“Recombinant soluble FcαRI (from UniProt P24071 22-227) (receptor)” gave a Kd [1] of 151 nM, a koff [1] of 0.057 s⁻¹ and a kon [1] of 370000 M⁻¹ s⁻¹. For the same substance, the Kd [2] was 226 nM, the koff [2] was 0.049 s⁻¹ and the kon [2] was 270000 M⁻¹ s⁻¹. The Kd [3] was 160 nM, the koff [3] was 0.055 s⁻¹ and the kon [3] was 340000 M⁻¹ s⁻¹. For the same substance, the Kd [4] was 109 nM, the koff [4] was 0.05 s⁻¹ and the kon [4] was 440000 M⁻¹ s⁻¹. For the same substance, the Kd [5] was 182 nM, the koff [5] was 0.049 s⁻¹ and the kon [5] was 260000 M⁻¹ s⁻¹. The Kd [6] was 144 nM, the koff [6] was 0.055 s⁻¹ and the kon [6] was 360000 M⁻¹ s⁻¹. For the same substance, the Kd [7] was 157 nM, the koff [7] was 0.05 s⁻¹ and the kon [7] was 310000 M⁻¹ s⁻¹. It also gave a Kd [8] of 103 nM, a koff [8] of 0.061 s⁻¹ and a kon [8] of 580000 M⁻¹ s⁻¹. The stoichiometry N [9] was 1, the stoichiometry N [10] was 1 and the Kd [11] was 110 nM. For the same substance, the stoichiometry N [11] was 1, the Kd [12] was 170 nM and the stoichiometry N [12] was 1. It also gave a Kd [13] of 170 nM, a stoichiometry N [13] of 1 and a Kd [14] of 110 nM. The stoichiometry N [14] was 1, the stoichiometry N [15] was 1 and the stoichiometry N [16] was 1.
